# Laboratory results taken from US7662384B2, “Use of anti-α5β1 antibodies to inhibit cancer cell proliferation” (Facet Biotech Corporation, priority 2004, dated 2010).
# B1: IIA1: parent mouse IgG1 class anti-α5β1 antibody shown to inhibit α5β1 integrin binding to fibronectin (antibody, V domains shown)
# VH: MAVLGLLLCLVTFPSCVLSQVQLKESGPGLVAPSQSLSITCTISGFSLTDYGVHWVRQPPGKGLEWLVVIWSDGSSTYNSALKSRMTIRKDNSKSQVFLIMNSLQTDDSAMYYCARHGTYYGMTTTGDALDYWGQGTSVTVSS
# VL: MDFQVQIFSFLLISASVIMSRGQIVLTQSPAIMSASLGERVTMTCTASSSVSSNYLHWYQQKPGSAPNLWIYSTSNLASGVPARFSGSGSGTSYSLTISSMEAEDAATYYCHQYLRSPPTFGGGTKLEIK
# modifications: mus muscalus
# B2: M200: chimeric IgG4 anti-α5β1 antibody derived from IIA1; generic name volociximab (antibody, V domains shown)
# VH: B1 VH
# VL: MDFQVQIFSFLLISASVIMSRGQIVLTQSPAIMSASLGERVTMTCTASSSVSSNYLHWYQQKPGSAPNLWIYSTSNLASGVPARFSGSGSGTSYSLTISSMEAEDAATYYCHQYLRSPPTFGGGTKLEIKDMSVDMSV
# modifications: chimeric antibody
# notes: chimeric IgG4 anti-α5β1 antibody derived from IIA1; generic name volociximab
# Tests used:
# human NW231 tumors = test: NW231 xenograft tumor establishment, IIA1 with DOXIL; format: in vivo, SCID mice; settings: 24 days post-implant (control TIB ~425 mm^3)
# Method: The following experiment was conducted in order to determine the efficacy of the anti-α5β1 integrin antibody, IIA1 in combination with the chemotherapeutic agent, DOXIL®, for preventing establishment of human NW231 tumors in vivo. DOXIL® is a liposome encapsulated formulation of doxorubicin HCl, a cytotoxic anthracycline antibiotic isolated from Streptomyces peucetius. The NW231 cell line originated from breast cancer and is considered a good model for studying treatments for breast cancer.
# Four to six week old female SCID mice obtained from Taconic Farms and maintained in micro-isolator cages were inoculated in the mammary fat pads with 1×10^7 NW231 cells. Animals received either TIB control (n=20) or […] (n=20) at 5 mg/kg for the first injection at the time of tumor cell inoculation. Subsequent treatments were at 0.7 mg/kg per injection. DOXIL® treatment was commenced 5 days post tumor cell inoculation. Chemotherapeutic doses were at 4 mg/kg for the first injection and at 2 mg/kg for subsequent injections. Reagents were delivered by intraperitoneal injection for four doses. Tumor volume was measured twice weekly and clinical and mortality observations were performed daily according to IACUC regulations.
# [1] = human, in vivo, 10 mg/kg
# Method: The serum for measuring M200 concentrations was obtained immediately before and after the first dose, and at 4, 24, 48, and 168 hours after completion of the first dose. Serum samples for measuring M200 concentrations were also taken immediately before, at the end, and 4 hours after the completion of each subsequent infusion. These samples were split and aliquots assayed before the next dose and again at the end of the study: end of 1st dose, 168 hours after 1st dose, immediately pre-dose (trough) and immediately post-dose (peak) for the 2nd, 3rd, 4th and 5th doses. The serum levels of M200 were measured by ELISA.
# The plasma concentration-time data of M200 from each patient was subjected to a PK analysis. The following parameters were included in the calculations: peak (Cmax) and trough (Cmin) levels, terminal phase half-life (T1/2 β), area under the plasma-concentration time curve (AUC), elimination clearance (CL), and volume of distribution (V). Summary parameters were computed across patients from each treatment group. Changes in the PK parameters as a function of dose and time were also evaluated.
# angiogenesis = settings: rabbit eye model; cited from earlier work
# [2] = predicted human serum levels of M200 from monkey PK data; parameters: species or system humans
# Method: At the highest dose in humans (15.0 mg/kg), the mean peak after 5 doses was predicted to be 592 μg/mL with the range of variability in humans predicted as 320 to 829 μg/mL. Table 3, was compiled using PK data from the monkey studies to predict the peak and tough serum concentrations (Cmax and Cmin, respectively) for each dose at each dose level in humans.
# [3] = test system: activated endothelial cells; settings: regardless of the growth factor stimulus; cited from earlier work
# [4] = Phase I dose-escalation study: immunogenicity (double-antigen bridging ELISA); format: in vivo, human
# Method: Immunogenicity of M200 was determined by a double-antigen bridging ELISA assay. Serum samples for anti-M200 antibodies were obtained from patients before treatment, prior to the second dose, and at study exit, 45 days after the last dose of M200. In addition, serum for anti-M200 antibodies was drawn if the interval between doses was […]. Samples were stored and evaluated at the end of the study. Samples that tested positive for antibodies to M200 were re-assayed for neutralizing antibodies to M200. Patients with known exposure to murine or chimeric monoclonal antibodies were screened for the presence of anti-M200 antibodies prior to receiving the first dose of M200.
# α5β1 sites on monocytes = biological target: T1, α5β1 sites on monocytes (Homo sapiens, UniProt P05556+P08648); test: Phase I study: saturation of α5β1 sites on monocytes by flow cytometry; format: in vivo; settings: 10 mg/kg dosage
# T1 construct: endogenous in cells; host or cells: CD14+ monocytes in peripheral blood of human patients
# Method: The integrin α5β1 is also expressed on monocytes in the peripheral blood. To determine the dose at which the α5β1 sites on these circulating cells is saturated by M200, samples of peripheral blood were taken before the first dose on Study Day 1, Study Days 2 and 8, just before each subsequent dose, and on Study Day 43. The saturation of α5β1 sites on monocytes was determined by flow cytometry. The monocytes were identified by using antibodies to CD14. Bound M200 on the monocyte surface was detected by adding labeled anti-human IgG4. Unoccupied (free) α5β1 on the cells was detected by adding labeled IIA1. The percentages of monocytes and lymphocytes expressing α5β1 was also assessed.
# T1 sequence (P08648 42-894 limits assumed): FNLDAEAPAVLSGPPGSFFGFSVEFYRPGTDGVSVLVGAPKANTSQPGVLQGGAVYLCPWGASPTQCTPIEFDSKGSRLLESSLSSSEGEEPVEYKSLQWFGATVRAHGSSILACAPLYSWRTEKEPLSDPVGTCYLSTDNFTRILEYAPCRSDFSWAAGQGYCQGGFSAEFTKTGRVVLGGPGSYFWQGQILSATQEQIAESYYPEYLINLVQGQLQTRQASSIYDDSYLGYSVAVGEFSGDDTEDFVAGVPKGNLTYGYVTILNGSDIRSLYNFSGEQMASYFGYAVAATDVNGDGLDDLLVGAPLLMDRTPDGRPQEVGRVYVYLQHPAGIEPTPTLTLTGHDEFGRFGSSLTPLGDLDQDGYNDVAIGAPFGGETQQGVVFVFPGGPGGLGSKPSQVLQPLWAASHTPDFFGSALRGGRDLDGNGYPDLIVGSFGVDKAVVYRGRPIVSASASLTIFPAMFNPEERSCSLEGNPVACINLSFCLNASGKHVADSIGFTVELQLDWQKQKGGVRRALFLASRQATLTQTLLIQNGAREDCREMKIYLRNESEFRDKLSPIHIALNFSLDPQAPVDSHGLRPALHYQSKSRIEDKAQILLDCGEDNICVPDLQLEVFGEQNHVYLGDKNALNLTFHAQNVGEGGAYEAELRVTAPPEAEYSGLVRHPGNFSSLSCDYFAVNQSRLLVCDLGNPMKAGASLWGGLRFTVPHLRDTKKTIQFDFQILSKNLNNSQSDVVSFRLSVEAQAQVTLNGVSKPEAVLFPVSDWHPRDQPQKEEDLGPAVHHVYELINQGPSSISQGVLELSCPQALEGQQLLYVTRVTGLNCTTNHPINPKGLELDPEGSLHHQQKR
# T1 sequence (P08648 895-1049 limits assumed): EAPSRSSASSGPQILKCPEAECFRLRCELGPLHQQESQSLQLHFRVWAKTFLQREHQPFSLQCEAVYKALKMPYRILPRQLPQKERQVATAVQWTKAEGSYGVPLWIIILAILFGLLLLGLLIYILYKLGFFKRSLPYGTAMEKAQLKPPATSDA
# T1 sequence (P05556 21-798): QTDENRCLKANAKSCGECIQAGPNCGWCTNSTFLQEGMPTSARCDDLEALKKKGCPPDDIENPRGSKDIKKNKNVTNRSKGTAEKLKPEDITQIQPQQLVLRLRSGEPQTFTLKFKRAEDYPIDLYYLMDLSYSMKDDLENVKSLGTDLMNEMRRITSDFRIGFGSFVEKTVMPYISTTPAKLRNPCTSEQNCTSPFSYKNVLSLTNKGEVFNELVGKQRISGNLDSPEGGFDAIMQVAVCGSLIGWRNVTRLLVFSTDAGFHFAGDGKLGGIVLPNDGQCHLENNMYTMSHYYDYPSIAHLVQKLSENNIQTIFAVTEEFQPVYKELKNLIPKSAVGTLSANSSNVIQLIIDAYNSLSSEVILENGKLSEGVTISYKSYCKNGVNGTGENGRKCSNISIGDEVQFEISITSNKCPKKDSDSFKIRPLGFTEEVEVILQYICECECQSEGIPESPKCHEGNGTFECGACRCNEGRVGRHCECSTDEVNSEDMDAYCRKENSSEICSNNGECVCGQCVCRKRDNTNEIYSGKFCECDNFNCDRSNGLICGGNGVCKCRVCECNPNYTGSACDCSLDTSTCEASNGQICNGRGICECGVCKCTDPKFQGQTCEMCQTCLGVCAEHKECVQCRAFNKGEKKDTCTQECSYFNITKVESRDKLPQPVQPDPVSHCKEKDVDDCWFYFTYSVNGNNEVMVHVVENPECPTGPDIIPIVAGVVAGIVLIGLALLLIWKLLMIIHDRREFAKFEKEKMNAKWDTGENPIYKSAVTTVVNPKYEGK
molecule,measurement,setting,value
B1,mean tumor volume,human NW231 tumors,~175 mm^3
B2,T1/2,[1],15.7 days
same,in vivo anti-angiogenic efficacy,angiogenesis,in vivo anti-angiogenic efficacy
same,Estimated peak serum level (Cmax) in humans,"[2]; 0.5 mg/kg, dose number 1",11 µg/mL
same,Estimated trough serum level (Cmin) in humans,"[2]; 0.5 mg/kg, dose number 1",1.5 µg/mL
same,Estimated peak serum level (Cmax) in humans,"[2]; 0.5 mg/kg, dose number 2",11 µg/mL
same,Estimated trough serum level (Cmin) in humans,"[2]; 0.5 mg/kg, dose number 2",1.6 µg/mL
same,Estimated peak serum level (Cmax) in humans,"[2]; 0.5 mg/kg, dose number 3",12 µg/mL
same,Estimated trough serum level (Cmin) in humans,"[2]; 0.5 mg/kg, dose number 3",2 µg/mL
same,Estimated peak serum level (Cmax) in humans,"[2]; 0.5 mg/kg, dose number 4",13 µg/mL
same,Estimated trough serum level (Cmin) in humans,"[2]; 0.5 mg/kg, dose number 4",2.1 µg/mL
same,Estimated peak serum level (Cmax) in humans,"[2]; 0.5 mg/kg, dose number 5",13 µg/mL
same,Estimated trough serum level (Cmin) in humans,"[2]; 0.5 mg/kg, dose number 5",2.2 µg/mL
same,Estimated peak serum level (Cmax) in humans,"[2]; 1.0 mg/kg, dose number 1",22 µg/mL
same,Estimated trough serum level (Cmin) in humans,"[2]; 1.0 mg/kg, dose number 1",3 µg/mL
same,Estimated peak serum level (Cmax) in humans,"[2]; 1.0 mg/kg, dose number 2",22 µg/mL
same,Estimated trough serum level (Cmin) in humans,"[2]; 1.0 mg/kg, dose number 2",3 µg/mL
same,Estimated peak serum level (Cmax) in humans,"[2]; 1.0 mg/kg, dose number 3",25 µg/mL
same,Estimated trough serum level (Cmin) in humans,"[2]; 1.0 mg/kg, dose number 3",4 µg/mL
same,Estimated peak serum level (Cmax) in humans,"[2]; 1.0 mg/kg, dose number 4",26 µg/mL
same,Estimated trough serum level (Cmin) in humans,"[2]; 1.0 mg/kg, dose number 4",5 µg/mL
same,Estimated peak serum level (Cmax) in humans,"[2]; 1.0 mg/kg, dose number 5",26 µg/mL
same,Estimated trough serum level (Cmin) in humans,"[2]; 1.0 mg/kg, dose number 5",5 µg/mL
same,Estimated peak serum level (Cmax) in humans,"[2]; 2.5 mg/kg, dose number 1",54 µg/mL
same,Estimated trough serum level (Cmin) in humans,"[2]; 2.5 mg/kg, dose number 1",9 µg/mL
same,Estimated peak serum level (Cmax) in humans,"[2]; 2.5 mg/kg, dose number 2",57 µg/mL
same,Estimated trough serum level (Cmin) in humans,"[2]; 2.5 mg/kg, dose number 2",10 µg/mL
same,Estimated peak serum level (Cmax) in humans,"[2]; 2.5 mg/kg, dose number 3",64 µg/mL
same,Estimated trough serum level (Cmin) in humans,"[2]; 2.5 mg/kg, dose number 3",13 µg/mL
same,Estimated peak serum level (Cmax) in humans,"[2]; 2.5 mg/kg, dose number 4",67 µg/mL
same,Estimated trough serum level (Cmin) in humans,"[2]; 2.5 mg/kg, dose number 4",14 µg/mL
same,Estimated peak serum level (Cmax) in humans,"[2]; 2.5 mg/kg, dose number 5",68 µg/mL
same,Estimated trough serum level (Cmin) in humans,"[2]; 2.5 mg/kg, dose number 5",15 µg/mL
same,Estimated peak serum level (Cmax) in humans,"[2]; 5.0 mg/kg, dose number 1",108 µg/mL
same,Estimated trough serum level (Cmin) in humans,"[2]; 5.0 mg/kg, dose number 1",20 µg/mL
same,Estimated peak serum level (Cmax) in humans,"[2]; 5.0 mg/kg, dose number 2",114 µg/mL
same,Estimated trough serum level (Cmin) in humans,"[2]; 5.0 mg/kg, dose number 2",24 µg/mL
same,Estimated peak serum level (Cmax) in humans,"[2]; 5.0 mg/kg, dose number 3",132 µg/mL
same,Estimated trough serum level (Cmin) in humans,"[2]; 5.0 mg/kg, dose number 3",33 µg/mL
same,Estimated peak serum level (Cmax) in humans,"[2]; 5.0 mg/kg, dose number 4",141 µg/mL
same,Estimated trough serum level (Cmin) in humans,"[2]; 5.0 mg/kg, dose number 4",39 µg/mL
same,Estimated peak serum level (Cmax) in humans,"[2]; 5.0 mg/kg, dose number 5",147 µg/mL
same,Estimated trough serum level (Cmin) in humans,"[2]; 5.0 mg/kg, dose number 5",43 µg/mL
same,Estimated peak serum level (Cmax) in humans,"[2]; 10.0 mg/kg, dose number 1",216 µg/mL
same,Estimated trough serum level (Cmin) in humans,"[2]; 10.0 mg/kg, dose number 1",51 µg/mL
same,Estimated peak serum level (Cmax) in humans,"[2]; 10.0 mg/kg, dose number 2",236 µg/mL
same,Estimated trough serum level (Cmin) in humans,"[2]; 10.0 mg/kg, dose number 2",66 µg/mL
same,Estimated peak serum level (Cmax) in humans,"[2]; 10.0 mg/kg, dose number 3",282 µg/mL
same,Estimated trough serum level (Cmin) in humans,"[2]; 10.0 mg/kg, dose number 3",101 µg/mL
same,Estimated peak serum level (Cmax) in humans,"[2]; 10.0 mg/kg, dose number 4",317 µg/mL
same,Estimated trough serum level (Cmin) in humans,"[2]; 10.0 mg/kg, dose number 4",131 µg/mL
same,Estimated peak serum level (Cmax) in humans,"[2]; 10.0 mg/kg, dose number 5",346 µg/mL
same,Estimated trough serum level (Cmin) in humans,"[2]; 10.0 mg/kg, dose number 5",156 µg/mL
same,predicted terminal half-life in humans,[2]; 15.0 mg/kg,about 13 days
same,Estimated Cmax range (54-140%) in humans,"[2]; 15.0 mg/kg, dose number 1",175 to 453 µg/mL
same,Estimated peak serum level (Cmax) in humans,"[2]; 15.0 mg/kg, dose number 1",324 µg/mL
same,Estimated trough serum level (Cmin) in humans,"[2]; 15.0 mg/kg, dose number 1",91 µg/mL
same,Estimated Cmax range (54-140%) in humans,"[2]; 15.0 mg/kg, dose number 2",197 to 512 µg/mL
same,Estimated peak serum level (Cmax) in humans,"[2]; 15.0 mg/kg, dose number 2",366 µg/mL
same,Estimated trough serum level (Cmin) in humans,"[2]; 15.0 mg/kg, dose number 2",126 µg/mL
same,Estimated Cmax range (54-140%) in humans,"[2]; 15.0 mg/kg, dose number 3",243 to 629 µg/mL
same,Estimated peak serum level (Cmax) in humans,"[2]; 15.0 mg/kg, dose number 3",450 µg/mL
same,Estimated trough serum level (Cmin) in humans,"[2]; 15.0 mg/kg, dose number 3",200 µg/mL
same,Estimated Cmax range (54-140%) in humans,"[2]; 15.0 mg/kg, dose number 4",283 to 733 µg/mL
same,Estimated peak serum level (Cmax) in humans,"[2]; 15.0 mg/kg, dose number 4",524 µg/mL
same,Estimated trough serum level (Cmin) in humans,"[2]; 15.0 mg/kg, dose number 4",268 µg/mL
same,Estimated peak serum level (Cmax) in humans,"[2]; 15.0 mg/kg, dose number 5",592 µg/mL
same,Estimated trough serum level (Cmin) in humans,"[2]; 15.0 mg/kg, dose number 5",332 µg/mL
same,predicted time to steady state concentration,[2]; all doses <10.0 mg/kg,≤ 4 weeks
same,predicted time to steady state concentration,[2]; doses ≧10.0 mg/kg,≤ 5 weeks
same,apoptosis of activated endothelial cells in vitro,[3],induce apoptosis
same,patients tested positive for anti-M200 antibodies,[4]; 0.5 mg/kg and 1.0 mg/kg dose levels,Three
same,patients tested positive for anti-M200,[4]; higher dose cohorts,No patients
same,monocyte saturation,α5β1 sites on monocytes,monocyte saturation
